According to patent US9249224B2 (RINAT NEUROSCIENCE CORP., priority 2011, dated 2016):

Key:
human GHR = target: T1, human GHR (Homo sapiens, UniProt P10912); experiment: Biacore kinetics and affinity, immobilized Fab, human GHR analyte, 37° C.; assay type: binding; conditions: Fab captured on anti-human kappa surface
T1 construct: his-tagged monomers of amino acids 31-235 of the extracellular domain of the human or cyno GHR
T1 sequence (P10912 49-253): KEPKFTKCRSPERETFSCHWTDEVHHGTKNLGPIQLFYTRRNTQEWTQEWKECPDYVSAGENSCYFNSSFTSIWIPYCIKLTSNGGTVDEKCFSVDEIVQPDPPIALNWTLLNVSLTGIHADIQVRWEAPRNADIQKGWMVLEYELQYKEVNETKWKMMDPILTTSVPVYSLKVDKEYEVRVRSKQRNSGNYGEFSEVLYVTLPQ
Description: (§1) The affinity of GHR antibody SS1 Fab to human and cyno GHR was measured on a Biacore™ T200 biosensor (GE Lifesciences™, Piscataway N.J.).
(§2) An anti-human kappa sensor chip was prepared by activating all flow cells of a Biacore™ CM4 sensor chip with a 1:1 (v/v) mixture of 400 mM EDC and 100 mM NHS for 7 minutes, at a flow rate of 10 μL/min. An anti-human kappa reagent (goat F(ab′)2 fragment anti-human kappa, Southern Biotech Catalog #2063-01) was diluted to 50 μg/mL in 10 mM sodium acetate pH 4.5 and injected on all flow cells for 7 minutes at 20 μL/min. All flow cells were blocked with 100 mM ethylenediamine in 150 mM borate buffer pH 8.5 for 7 minutes at 10 μL/min.
(§3) The kinetics assay was run using a methodology with varying dissociation times as described in Katsamba et al., supra. Fabs were captured onto downstream flow cells (flow cells 2, 3 and 4) at 2 μg/mL at a flow rate of 10 μL/min for 2 minutes. Different Fabs were captured on each flow cell. Flow cell 1 was used as a reference surface. […] After the analyte injection, dissociation was monitored for 30 minutes (for the 133 nM and 400 nM GHR cycles) or 60 seconds (all other cycles) followed by regeneration with three 30-second injections of 10 mM glycine pH 1.7. A 6-membered dilution series of GHR was analyzed using this method, where the top concentration was 400 nM and the dilution factor was 3-fold. […]

cyno GHR = experiment: Biacore kinetics and affinity, immobilized Fab, cyno GHR analyte, 37° C.; assay type: binding, cynomolgus monkey; conditions: Fab captured on anti-human kappa surface
Description: as §1, §2, §3

hGHR-hFc = target: T2, hGHR-hFc (Homo sapiens, UniProt P10912); experiment: Biacore kinetics and affinity, immobilized hGHR-hFc, Fab analyte, 37° C.; assay type: binding; conditions: hGHR-hFc captured on anti-human Fc surface
T2 construct: purchased R&D Systems 1210-GR
Description: as §1
as §2, with “anti-human Fc” for “anti-human kappa”, “fragment to human IgG Fc, Cappel” for “fragment anti-human kappa, Southern Biotech”, “Catalog #55053)” for “Catalog #2063-01)”, “to 60” for “to 50”, “pH 5.0” for “pH 4.5”
The kinetics assay was run using a methodology with varying dissociation times as described in Katsamba et al., supra. The hGHR-hFc fusion protein (R&D Systems™ Catalog#1210-GR) was captured onto downstream flow cells at 2 μg/mL at a flow rate of 10 μL/min for 30 seconds, 1 minute and 2 minutes on flow cells 2, 3 and 4, respectively. Flow cell 1 was used as a reference surface. […] After the analyte injection, dissociation was monitored for 30 minutes (400 nM Fab cycle) or 60 seconds (all other cycles) followed by regeneration with two 30-second injections of 75 mM phosphoric acid. A 5-membered dilution series of Fab was analyzed using this method, where the top concentration was 400 nM and the dilution factor was 3-fold. […]

T2 sequence (P10912 with tags, fused parts or gaps limits assumed): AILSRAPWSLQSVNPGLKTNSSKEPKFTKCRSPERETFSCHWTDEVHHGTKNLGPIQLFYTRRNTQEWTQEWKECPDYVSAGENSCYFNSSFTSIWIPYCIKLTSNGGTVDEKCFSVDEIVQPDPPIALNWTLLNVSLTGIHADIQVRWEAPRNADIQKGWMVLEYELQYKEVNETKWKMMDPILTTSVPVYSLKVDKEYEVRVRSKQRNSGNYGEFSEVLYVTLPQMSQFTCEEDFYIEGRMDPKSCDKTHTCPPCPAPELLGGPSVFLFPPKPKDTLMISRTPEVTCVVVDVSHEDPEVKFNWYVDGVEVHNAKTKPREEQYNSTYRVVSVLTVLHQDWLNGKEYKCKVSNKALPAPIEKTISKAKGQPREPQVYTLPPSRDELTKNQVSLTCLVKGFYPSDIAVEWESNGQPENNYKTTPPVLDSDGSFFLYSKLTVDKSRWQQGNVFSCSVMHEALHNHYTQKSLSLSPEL
cyno GHR, sequence (as listed by the source): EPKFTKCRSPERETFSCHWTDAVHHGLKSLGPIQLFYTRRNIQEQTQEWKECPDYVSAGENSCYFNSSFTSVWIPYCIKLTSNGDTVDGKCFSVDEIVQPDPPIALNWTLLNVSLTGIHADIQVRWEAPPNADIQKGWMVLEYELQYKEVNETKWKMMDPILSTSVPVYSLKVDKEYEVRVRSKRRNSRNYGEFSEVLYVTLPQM

- ka (human GHR): 138000 M⁻¹ s⁻¹
- kd (human GHR): 0.000215 s⁻¹
- kd (cyno GHR): 0.000576 s⁻¹
- ka (hGHR-hFc): 374000 M⁻¹ s⁻¹
- kd (hGHR-hFc): 0.000359 s⁻¹
B1: SS1 Fab: Fab of GHR antibody SS1 (antibody, V domains shown)
VH: EVQLVESGGGLVKPGGSLRLSCAASGFTFSDAWMDWVRQAPGKGLEWVAEIRSKANYHATYYAESVKGRFTISRDDSKNTLYLQMNSLKTEDTAVYYCTLIRDYWGQGTLVTVSS
VL: EIVLTQSPGTLSLSPGERATLSCTATSSVSSSYLNWYQQKPGQAPRLLIYSTSNLASGIPDRFSGSGSGTDFTLTISRLEPEDFAVYYCHQYHRSTPTFGGGTKVEIK
- ka (cyno GHR): 182000 M⁻¹ s⁻¹
